Experimental data: the supplement of paper PMC12764529
± gives the half width of the 95% confidence interval.

Assay: folding stability dG unfold (combined trypsin and chymotrypsin); higher = more stable
How it was run: (§1)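 Only designs with AlphaFold2 dimer inter-PAE above 15 were retained; each was a mini-protein under 80 residues with no cysteine, in a PA-tagged cDNA display construct. After digestion with trypsin and chymotrypsin and sequencing, K50 was inferred by Bayesian fitting of counts, and unfolding free energy was derived per protease or combined against a sequence-predicted unfolded-state K50 and a shared folded-state K50.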
For “SAGGKVVTVEVELENGVRVTVEFVEEDGYLALKVTVEVRLPAPPVTTADGREKEVTRRLELVILLPKESAGG [r13_780_TrROS_Hall]”, the “folding stability dG unfold” value was 3.05 ± 0.13 kcal/mol. In the case of “SAGKKVRIWIVFDGDPEQAKYLAEEIAKELRQKDGHKNVDIEVIPPGQDMHQMMEWAEENNVDIVIMVSAGG [r19_89_TrROS]”, the “folding stability dG unfold” value is reported as 3.59 ± 0.13 kcal/mol. For “SAGKKITAEELAKKIAEELGLPEDAKVEVEEVDGTIYIRVEGYVIKITVKDGEITIEIKPAPASPEALKSAG [r5_190_TrROS_Hall]”, the “folding stability dG unfold” value was 2.43 ± 0.28 kcal/mol. For “SAGPPWEPVPITPEIIDKLADKLNPGFPISLQVYRHPDGRVKISIRNEGSGKEYTLVVDPDGDIEIEPSAGG [r19_70_TrROS]”, the “folding stability dG unfold” value was 3.4 ± 0.1 kcal/mol. In the case of “SAGPVKIQIEPDNGEEFEFRLPPNVSEIETSGDKFIIRFPPGMMFKIEIDEELPPGDTVPIRILDIVPSAGG [r19_274_TrROS]”, the “folding stability dG unfold” value is reported as 1.21 ± 0.17 kcal/mol. In the case of “SAGGITIVWQPGYFRIEFPGNGNTVPIPIPPDDPGRTLEEFADEFIDEMSERFGIPPPEDIKIEYYDSAGGS [r8_402_TrROS]”, the “folding stability dG unfold” value is reported as 1.39 ± 0.15 kcal/mol. For “SAGGSAGGSMKTVEIELVNKETGKKVTITVNDGKVTIRITNPDGEEKELEFPSLEEALEALLSSAGGSAGGS [r12_511_TrROS_Hall]”, the “folding stability dG unfold” value was 2.19 ± 0.2 kcal/mol. For “SAGGSAGGEEAREAIEQELRARGINVTEIKVEEKKLTPDKTVVTFTVTARLPDSELTSTFTVVDSAGGSAGG [r6_533_JUSTAS]”, the “folding stability dG unfold” value was -0.173 ± 0.13 kcal/mol. For “SAGGSAGGSAGMTLRLKIRVYDPETREEVEEKEIEVELPPGASLEELLAALPPEQVEVEFSAGGSAGGSAGG [r17_339_TrROS_Hall]”, the “folding stability dG unfold” value was 0.848 ± 0.15 kcal/mol. With “PFPIYVKIERDGKPVREEPIPMDELQEMPVEEVIEYARELLRQFPGRKYKVEVYFPGGPREFEIKDPEDIKS [r1_477_TrROS]” the “folding stability dG unfold” value was 1.28 ± 0.16 kcal/mol. For “SAGGLIEAIKEAIDQAPPGDEEVTIPIRFPNGTFVIEIRREKDKYKIEIEMQNPNGQKQEITITIEVSAGGS [r16_642_TrROS]”, the “folding stability dG unfold” value was 1.65 ± 0.12 kcal/mol. With “SAGGSAGGAPPDLKVTVKPTPGPGTGQRYTVVVELDEGGVLPFPFSFASPSEVEKAAKAIAALLSAGGSAGG [r6_996_TrMRF]” the “folding stability dG unfold” value was 1.31 ± 0.14 kcal/mol. In the case of “SAGGSAGGSKETLTIKIKVEVKDENGEKKEVTVTLTIKAETKEEAEALLKELKEKYPNVKVEPSAGGSAGGS [r12_1043_TrROS_Hall]”, the “folding stability dG unfold” value is reported as 2.93 ± 0.23 kcal/mol. For “SMKYRITLTITKGDEDIVVEIETESEEEAKEKFKKAISPELLKALPEDAKVEITVEPEPLVIPEPGVPLPSA [r9_111_JUSTAS]”, the “folding stability dG unfold” value was 0.995 ± 0.062 kcal/mol. In the case of “SAGGMRLRIVVKSEEEARELAEALAKKLKEEFPGLKIEVKVVKVEYNEETDLIVVEVEIKVELEDEEPSAGG [r13_585_TrROS_Hall]”, the “folding stability dG unfold” value is reported as 4.42 ± 0.35 kcal/mol. In the case of “SAGGSAGGSAGGSKPMYLFTVETENGKKLVIEAKSLEEALKALEKAGYKIKKVEVVKLPSAGGSAGGSAGGS [r4_213_TrROS_Hall]”, the “folding stability dG unfold” value is reported as 3.81 ± 0.071 kcal/mol. In the case of “SAGGSAGGSSVPEGWEVEREKVLEAEIVGEDGPVLRVRLYRVRVRPVDGPPRYFFELDVDDVDSAGGSAGGS [r12_544_TrMRF]”, the “folding stability dG unfold” value is reported as 2.74 ± 0.11 kcal/mol. For “SAGRIHVMVFPLDPKDGKWEWVWTFTIDFKPGEKLTLDEIADDIPPKGYMVMIWFTPDTITITIWRRKDSAG [r5_269_TrROS]”, the “folding stability dG unfold” value was 4.96 ± 0.12 kcal/mol. For “SAGGSAGSYLVRVRIRRPEDGKELADAVFEVPPDEPVTAEAILKELGIPPEEAKNIEIEVEVFELGSAGGSA [r15_665_TrMRF]”, the “folding stability dG unfold” value was 2.75 ± 0.061 kcal/mol. In the case of “SAWIPAKEIAKYLAKELQEKMPHPGMKIPVDVETNPEENYVRVDIDIEHPGDGGKWKFEIYIPPGDTIVSAG [r14_849_TrROS]”, the “folding stability dG unfold” value is reported as 1.29 ± 0.12 kcal/mol. In the case of “SAGGSAGGSAGMETTDSVITYPDGSVVTVTTLPDGTTRVTTFYPESGLTEEEIVPAAELGSAGGSAGGSAGG [r11_1015_JUSTAS]”, the “folding stability dG unfold” value is reported as 2.19 ± 0.086 kcal/mol.

Assay: folding stability dG unfold from chymotrypsin proteolysis; higher = more stable
How it was run: as §1
In the case of “SAGGNPRPIELYFPEGKIEKIQEKLREEDGYDVDIQMEQNPDGWFKINITFQDPQRVMDILEKFGITSAGGS [r16_172_TrROS]”, the “folding stability dG unfold” value is reported as 1.37 ± 0.031 kcal/mol. With “SAGGSAGGSFKVPGGYKVVSVEEDPENKTVEITFADGSKLTIDIEDPNVFKPVKVEAPEGFDVSAGGSAGGS [r12_149_TrMRF]” the “folding stability dG unfold” value was 2.04 ± 0.038 kcal/mol. With “SAGGLYKKDPDGQYVKPVPKVPPIPIEIKFPNGVEVKIEIYPYSNHITIEYTGPNPELANELIQEIIQSAGG [r13_701_TrROS]” the “folding stability dG unfold” value was 0.624 ± 0.2 kcal/mol. For “SAGGMKKTVTITITEELPTETGEYKTKTVTTTLTVTPPPPEVTEEEKLREKALKENPNVSPDDPKALLSAGG [r13_136_JUSTAS]”, the “folding stability dG unfold” value was 0.535 ± 0.11 kcal/mol. With “SAGGREITIMIWMPLEDMEEFANEIANALAAEGYKVKDIEIQFKVIPDPENGRPWVMFMIEVEIEPPSAGGS [r8_475_TrROS]” the “folding stability dG unfold” value was 4.717 ± 0.044 kcal/mol. With “SAGGKTLTIEVNGKKYKITVEKNENGELTLTIYEYDKKTKKWKKIKTIKLKNMSLEEVLKLLKKLPPSAGGS [r16_378_TrROS_Hall]” the “folding stability dG unfold” value was 4.91 ± 0.19 kcal/mol. For “SAGGEGEPFRITPDEIQRIFNELAQDHGFNVSISEIQVPGDEVRITISIQHDGGTQSVRLPFRIEKDDSAGG [r13_652_TrROS]”, the “folding stability dG unfold” value was 0.191 ± 0.21 kcal/mol. In the case of “SLTPEQVEKIAKTIADVFRKLGYELKVKTKVFEVNNVPVAVVEFELIDKDGKPRRFRFVIHPDGTIEIFPSA [r9_1027_TrMRF]”, the “folding stability dG unfold” value is reported as 6.18 ± 0.092 kcal/mol. In the case of “SAGGSAGGSAGGSPPGQEILIQIKIEFTFPIKKQTDGKPQWHPITISFTAAIPIKVDPNSAGGSAGGSAGGS [r4_271_TrROS]”, the “folding stability dG unfold” value is reported as 3.59 ± 0.092 kcal/mol. For “SAGGIKIMIPPGMPEEEARELARMIASMLPDNGHNIDDVKVRPVKPMPPPDGEPHRMYEFEIKLEPPSAGGS [r16_266_TrROS]”, the “folding stability dG unfold” value was 0.35 ± 0.1 kcal/mol.
